# Data taken from patent US9260728B2, “Terpene synthases from Santalum” (UNIVERSITY OF BRITISH COLUMBIA, priority 2009, dated 2016).
# Key:
# [1] = GC-FID determination of reaction products of terpene synthases from FPP with magnesium or manganese; type: biochemical
# Procedure: Enzyme assays for all recombinant proteins were done in triplicate using the GC vial method described by O'Maille et al. (Anal. Biochem. 335:[…] (2004). For enzyme assays where only product identification was needed, 10 μg of protein was used in a final volume of 500 μL of reaction buffer (25 mM HEPES, 10% glycerol, 5 mM DTT and 10 mM of either Mg^2+ or Mn^2+. Substrates (FPP and GPP) were added to a final reaction concentration of 100 μM. Vials were overlaid with 500 μL of hexane to trap volatile products and incubated at 30° C. for 2 h. Mixtures were vortexed for 1 min to extract all volatiles and the vials were centrifuged to separate the organic layer.
# Product mixtures were analysed by GC-MS in scan mode for product identification. A standard containing the three santalenes and α-trans-bergamotene was prepared by flash chromatography of 2 mL of neat S. album oil over silica and eluted in hexane. A final yield of 25 mg was resuspended in EtOAc and purity was confirmed by GC-FID with conditions described below. All mass spectra were compared to the NIST 2005 library and the literature. Retention indices were determined for all compounds using an n-alkane standard and compared to the literature (R. P. Adams, “Identification of essential oil components by gas chromatography/mass spectrometry,” Allured Publishing Corporation, Carol Stream, Ill. (1995)).
# GC-FID was performed on a Shimadzu GC2010 with a 30 m 0.25 mm ID, 0.25 μm film DB-WAX column with He as the carrier gas. Splitless injection (2 μL) was used for all analyses. Conditions were as follows: injector 200° C., detector 250° C., column flow rate 1 mL/min. Oven program: 40° C. for 3 min, then 8° C./min to 180° C., held 5 min, then 10° C./min to 220° C., held 10 min. Needle height was adjusted to only draw from the upper organic layer of all sample vials. GC-MS was performed on a Shimadzu GC2010 with the same DB-WAX column and using He as the carrier gas. Conditions were as follows: injector 200° C., MS interface 240° C., ion source 200° C. Oven program: 40° C. for 3 min, then 8° C./min to 180° C., held 5 min, then 10° C./min to 220° C., held 10 min. Solvent cut time was set to 5 min. For product identification, total ion monitoring was used, scanning from m/z 45 to m/z 300. For kinetic assays, single ion monitoring of the sesquiterpene base ions m/z 91, 93 and 94 were used. Likewise monoterpene base ions (m/z 69, 71 and 93) were monitored. An internal standard (isobutyl benzene, 30 μM) was added to the hexane used to overlay each reaction. Detector response factors were calculated based on the santalene standard prepared earlier and used to determine the product concentrations for kinetic analysis.
# [2] = as above; type: biochemical; remark: listed apart in the source
molecule,measurement,setting,value
"SspiSSy: santalene synthase from Santalum spicatum, gene SEQ ID NO:5, protein SEQ ID NO:6 (protein, listed as Santalum spicatum, SspiSSy Protein) MDSSTATATTAPFIDHTDHVNLKIDNDSSESRRMGNYKPSIWNYDFLQSLAIHHNIVEEKHLKLAEKLKGQVMSMFGAPMEPLAKLELVDVVQRLGLNHQFETEIKEALFSVYKDGSNGWWFGHLHATSLRFRLLRQCGLFIPQDVFKTFQSKTDEFDMKLCDNIKGLLSLYEASFLGWKGENILDEAKAFATKYLKNAWENISQKWLAKRVKHALALPLHWRVPRIEARWFIEAYEQEENMNPTLLKLAKLDFNMVQSIHQKEIGELARWWVTTGLDKLAFARNNLLQSYMWSCAIASDPKFKLARETIVEIGSVLTVVDDAYDVYGSMDELDHYTYSVERWSCVEIDKLPNTLKLIFMSMFNKTNEVGLRVQHERGYNGIPTFIKAWVEQCKAYQKEARWYHGGHTPPLEEYSLNGLVSIGFPLLLITGYIAIAENEAALDKVHPLPDLLHYSSLLSRLINDMGTSPDEMARGDNLKSIHCYMNETGASEEVAREHIKGIIEENWKILNQCCFDQSQFQEPFITFNLNSVRGSHFFYEFGDGFGVTDSWTKVDMKSVLIDPIPLGEE",E-β-farnesene among reaction products (GC-FID),"[1]; FPP Mg, mean",2.2
same,Z-β-farnesene among reaction products (GC-FID),"[1]; FPP Mg, mean",0.7
same,epi-β-santalene among reaction products (GC-FID),"[1]; FPP Mg, mean",4.2
same,α-E-bergamotene among reaction products (GC-FID),"[1]; FPP Mg, mean",19.2
same,α-santalene among reaction products (GC-FID),"[1]; FPP Mg, mean",47.3
same,β-santalene among reaction products (GC-FID),"[1]; FPP Mg, mean",26.3
same,E-β-farnesene among reaction products (GC-FID),"[1]; FPP Mg, replicate 1",2.5
same,Z-β-farnesene among reaction products (GC-FID),"[1]; FPP Mg, replicate 1",0.7
same,epi-β-santalene among reaction products (GC-FID),"[1]; FPP Mg, replicate 1",4.6
same,α-E-bergamotene among reaction products (GC-FID),"[1]; FPP Mg, replicate 1",19.6
same,α-santalene among reaction products (GC-FID),"[1]; FPP Mg, replicate 1",46.3
same,β-santalene among reaction products (GC-FID),"[1]; FPP Mg, replicate 1",26.4
same,E-β-farnesene among reaction products (GC-FID),"[1]; FPP Mg, replicate 2",2.2
same,Z-β-farnesene among reaction products (GC-FID),"[1]; FPP Mg, replicate 2",0.6
same,epi-β-santalene among reaction products (GC-FID),"[1]; FPP Mg, replicate 2",4.2
same,α-E-bergamotene among reaction products (GC-FID),"[1]; FPP Mg, replicate 2",19.2
same,α-santalene among reaction products (GC-FID),"[1]; FPP Mg, replicate 2",47.4
same,β-santalene among reaction products (GC-FID),"[1]; FPP Mg, replicate 2",26.4
same,E-β-farnesene among reaction products (GC-FID),"[1]; FPP Mg, replicate 3",2.0
same,Z-β-farnesene among reaction products (GC-FID),"[1]; FPP Mg, replicate 3",0.8
same,epi-β-santalene among reaction products (GC-FID),"[1]; FPP Mg, replicate 3",4.0
same,α-E-bergamotene among reaction products (GC-FID),"[1]; FPP Mg, replicate 3",18.9
same,α-santalene among reaction products (GC-FID),"[1]; FPP Mg, replicate 3",48.1
same,β-santalene among reaction products (GC-FID),"[1]; FPP Mg, replicate 3",26.3
same,E-β-farnesene among reaction products (GC-FID),"[1]; FPP Mn, mean",8.2
same,Z-β-farnesene among reaction products (GC-FID),"[1]; FPP Mn, mean",1.0
same,epi-β-santalene among reaction products (GC-FID),"[1]; FPP Mn, mean",1.3
same,α-E-bergamotene among reaction products (GC-FID),"[1]; FPP Mn, mean",78.9
same,α-santalene among reaction products (GC-FID),"[1]; FPP Mn, mean",7.3
same,β-santalene among reaction products (GC-FID),"[1]; FPP Mn, mean",3.4
same,E-β-farnesene among reaction products (GC-FID),"[1]; FPP Mn, replicate 1",8.1
same,Z-β-farnesene among reaction products (GC-FID),"[1]; FPP Mn, replicate 1",1.0
same,epi-β-santalene among reaction products (GC-FID),"[1]; FPP Mn, replicate 1",1.4
same,α-E-bergamotene among reaction products (GC-FID),"[1]; FPP Mn, replicate 1",79.0
same,α-santalene among reaction products (GC-FID),"[1]; FPP Mn, replicate 1",7.2
same,β-santalene among reaction products (GC-FID),"[1]; FPP Mn, replicate 1",3.3
same,E-β-farnesene among reaction products (GC-FID),"[1]; FPP Mn, replicate 2",8.0
same,Z-β-farnesene among reaction products (GC-FID),"[1]; FPP Mn, replicate 2",1.0
same,epi-β-santalene among reaction products (GC-FID),"[1]; FPP Mn, replicate 2",1.7
same,α-E-bergamotene among reaction products (GC-FID),"[1]; FPP Mn, replicate 2",78.6
same,α-santalene among reaction products (GC-FID),"[1]; FPP Mn, replicate 2",7.4
same,β-santalene among reaction products (GC-FID),"[1]; FPP Mn, replicate 2",3.4
same,E-β-farnesene among reaction products (GC-FID),"[1]; FPP Mn, replicate 3",8.4
same,Z-β-farnesene among reaction products (GC-FID),"[1]; FPP Mn, replicate 3",1.0
same,epi-β-santalene among reaction products (GC-FID),"[1]; FPP Mn, replicate 3",0.7
same,α-E-bergamotene among reaction products (GC-FID),"[1]; FPP Mn, replicate 3",79.1
same,α-santalene among reaction products (GC-FID),"[1]; FPP Mn, replicate 3",7.3
same,β-santalene among reaction products (GC-FID),"[1]; FPP Mn, replicate 3",3.5
same,Relative % composition in oil produced by enzyme: E-α-bergamotol,[1]; GC-FID,19.2%
same,Relative % composition in oil produced by enzyme: β-santalol,[1]; GC-FID,26.3%
same,Relative % composition in oil produced by enzyme: epi-β-santalol,[2],4.2%
same,Relative % composition in oil produced by enzyme: α-santalol,[2],47.3%
